Results: patent publication US10428308B2, “Mesoderm and definitive endoderm cell populations” (Icahn School of Medicine at Mount Sinai, priority 2005, dated 2019)

Tested on: GFP-Bry ES cells / EBs
Experiment: Activin induction of brachyury (GFP) in serum-free EB cultures, FACS
Format: cell-based, mouse
Protocol: A) FACS profile showing GFP expression in day 6 EBs differentiated in the presence of 100 ng/ml of activin. B) Kinetics of GFP induction in cultures containing 100 ng/ml of activin. Open circles are EB differentiated in the presence of activin, closed squares are EBs differentiated in absence of activin. C) RT-PCR expression analysis of indicated genes in day 6 EBs grown in the presence (+activin) or absence (−activin) of activin. Numbers indicate day of EB differentiation.
FIGS. 23A and 23B show the effects of different concentrations of activin on the developmental potential of EBs. A) GFP expression in day 7 EBs induced with different concentrations of activin. B) RT-PCR expression analysis of day 7 EBs induced with different concentrations of activin.
To further enrich for cells with endodermal potential, the effects of growth factors known to induce this cell population in other model systems were tested. Studies in Xenopus have shown that activin will induce both mesoderm and endoderm from ectoderm in culture. Of particular interest was the observation that activin behaved as a morphogen in this model in that it induced different cell types at different concentrations used. […] ES cells were differentiated for 2 days in Stem Pro 34 medium without serum. At this stage, the developing EBs were harvested and recultured in IMDM supplemented with serum replacement (serum free) and activin at a concentration of 100 ng/ml. EBs were harvested at different days and assayed for GFP^+ expression and expression of genes indicative of ectoderm, mesoderm and endoderm development. […] While the kinetics of GFP induction was delayed compared to EBs differentiated in serum, this concentration of activin did induce substantial numbers of brachyury positive cells (60%) by day 6 of differentiation. […] Induction of pdx-1 is of interest, as this gene is essential for pancreas development. Genes associated with hematopoietic development, such as GATA-1 and those indicative of neuroectoderm differentiation such as PAX6 were not induced by activin.
As little as 1 ng/ml of activin induced GFP^+ expression (10% of the total population) by 7 days of culture (FIG. 23A). The frequency of GFP^+ cells increased to 40% in cultures stimulated with 3 ng/ml and reached plateau levels of greater than 50% at 30 ng/ml. […] HNF3β, Sox17, Hex-1 were all induced in cultures stimulated with 10, 30, or 100 ng/ml of activin. Pdx-1 expression required the highest amount of activin and was induced best in EBs stimulated with 100 ng/ml. Neither GATA1 nor c-fms was expressed at any concentration of activin.

B1: activin: growth factor purchased from R&D systems; induces mesoderm and endoderm (protein, UniProt P08476 311-426, looked up)
Inhibin beta A chain: GLECDGKVNICCKKQFFVSFKDIGWNDWIIAPSGYHANYCEGECPSHIAGTSGSSLSFHSTVINHYRMRGHSPFANLKSCCVPTKLRPMSMLYYDDGQNIIKKDIQNMIVEECGCS
With B1 the “GFP^+ expression (% of the total population)” value (activin 1 ng/ml, 7 days of culture) was 10%, the “frequency of GFP^+ cells” value (activin 3 ng/ml, day 7) was 40% and the “frequency of GFP^+ cells, plateau level” value (activin 30 ng/ml, day 7) was “greater than 50%”. The “brachyury positive cells (GFP)” value (activin 100 ng/ml, serum free, day 6 of differentiation) was 60%.
